# Reference: patent publication US12723255B2, “Herbicide tolerance genes and methods of use thereof” (priority 2014, dated 2026)
# Where “and” joins values, the source holds several entries; their conditions need not be identical. Equal entries are not always repeated.
# B1: MON-HT55: engineered oxygenase protein, amino acid sequence SEQ ID NO:11 (protein)
# chain: MHAALSPLSQRFERIAVQPLTGVLGAEITGVDLREPLDDSTWNEILDAFHTYQVIYFPGQAITNEQHIAFSRRFGPVDPVPLLKSIEGYPEVQMIRREANESGRVIGENWHTDSTFLDAPPAAVVMYAKEIPPYGGDTLFTSMYTAWETLSPTMQATIEGLNVVHSATRVFGSLYQAQNRRFSNTSVKVMDVDAGDRETVHPLVVTHPETGRKGLYVNQVYCQRIEGMSEKESEPLLSFLFAHATKPEFTCRVRWQEGDVLVWDNLCTQHYAVPDYAGKFRYLTRTTVGGVRPAR
# B2: MON-HT1: engineered oxygenase protein, amino acid sequence SEQ ID NO:14 (protein)
# chain: MHAALTPLTNKYRFIDVQPLTGVLGAEITGVDLREPLDDSTWNEILDAFHTYQVIYFPGQAITNEQHIAFSRRFGPVDPVPILKSIEGYPEVQMIRREANESSRFIGDDWHTDSTFLDAPPAAVVMRAIEVPEYGGDTGFLSMYSAWETLSPTMQATIEGLNVVHSATKVFGSLYQATNWRFSNTSVKVMDVDAGDRETVHPLVVTHPVTGRRALYCNQVYCQKIQGMTDAESKSLLQFLYEHATKFDFTCRVRWKKDQVLVWDNLCTMHRAVPDYAGKFRYLTRTTVAGDKPSR
# Columns and labels:
# F1 hybrid maize plants [1] = experiment: plant-based growth chamber assay for temperature-sensitive quizalofop-P tolerance; type: in vivo
# Description: The finding that hybrid plants expressing the engineered proteins MON-HT55 or MON-HT51 were sensitive to quizalofop-P application when grown in field conditions of high temperature was confirmed using a plant-based assay. The plant-based assay was designed to test tolerance to quizalofop-P of F1 hybrids in the growth chamber prior to field testing. The assay was developed using F1 hybrids of plants containing maize events NK603 (U.S. Pat. No. 8,273,959)×MON89034 (U.S. Pat. No. 8,581,047) and F1 hybrids of plants containing MON-HT55×MON89034. F1 hybrid seed was germinated in a growth chamber for 1 week and then moved to one of three different growth chambers to acclimate for two days at day/night temperatures of 20° C./20° C., 28° C./20° C., and 38° C./30° C. prior to application of 2× (0.16 lb ai/acre) quizalofop-P. As expected, the plants not containing MON-HT55 at all temperature regimens were severely injured by 2× quizalofop-P application (FIG. 1B). […] (FIG. 1C). This confirmed that the plant-based assay could be used to screen proteins in plants in the growth chamber for temperature-sensitive activity.
# F1 hybrid maize plants [2] = experiment: plant-based assay for heat sensitivity, quizalofop-P tolerance; type: in vivo; conditions: 2× quizalofop-P, ten days post treatment, 0 no visible injury, 5 dead plants
# Protocol: A plant-based enzyme activity assay for heat sensitivity was used to determine the effect of elevated growth temperatures on the herbicide tolerance of transgenic plants containing the optimized engineered proteins. To test for quizalofop-P tolerance at elevated growth temperatures, F1 hybrid (produced by crossing an R1 homozygous plant expressing one of the MON-HT proteins with inbred maize event MON89034) maize seed was grown in a growth chamber for 10 days at a day temperature of 28° C. and a night temperature of 20° C. with 50% humidity. After 10 days, the plants were moved to acclimate for 3 days at one of three different day and night temperature regimens: (1) both day and night temperatures set at 20° C.; (2) day temperature at 28° C. and night temperature at 20° C.; or (3) day temperature at 38° C. and night temperature at 30° C. At the end of the acclimation period, the plants were generally at V4 growth stage and were sprayed with 2× quizalofop-P. Ten days post treatment the plants were scored for injury on a rating scale of 1 to 5 where ‘0’ is no visible injury observed, ‘1’ is chlorotic speckling, ‘2’ is chlorotic streaking, ‘3’ there are leaf gaps or tears, ‘4’ are plants with stunted growth and/or twisted leaves, and ‘5’ are dead plants or no growth observed. […] (FIG. 4A) or 28° C./20° C. […]
# F1 hybrid maize plants [3] = experiment: 2,4-D tolerance at elevated growth temperatures; type: in vivo; conditions: 4× 2,4-D amine; day/night 38° C./30° C.; ten days after treatment
# Protocol: To test for 2,4-D tolerance at elevated growth temperatures, F1 hybrid plants were produced by crossing an R1 plant containing MON-HTI, MON-HT2, MON-HT3, MON-HT4, MON-HT7, or MON-HT55 with an inbred plant containing maize event MON89034. The F1 hybrid plants were grown in a greenhouse for one week at a minimum temperature of 20° C. and a maximum temperature of 28° C. with 50 to 80% humidity. After 1 week, the plants were moved to acclimate for three days at one of two different day and night temperature regimens: (1) both day and night temperatures set at 20° C. or (2) day temperature at 38° C. and night temperature at 30° C. At the end of the acclimation period, the plants were generally at V4 growth stage and were sprayed with 4× 2,4-D amine. Ten days after treatment the plants were scored for injury using an injury scale of 0 to 100 with “0” being no injury and “100” being a dead plant. When plants were acclimated at day/night temperatures of 20° C./20° C. prior to application of 4× 2,4-D amine, F1 plants containing MON-HT1, MON-HT2, MON-HT3, MON-HT4, MON-HT7, or MON-HT55 had injury rating averages of <10%, and the control plants had injury rating averages of <20% (FIG. 4D). […]
# [4] = enzyme activity assay at 23° C. with purified enzyme; type: biochemical
# Protocol: The enzyme activity of MON-HT protein variants with triclopyr, fluroxypyr, MCPA, MCPB, mecoprop, as substrates was determined using the enzyme activity assay conducted at 23° C. with purified enzyme. The activity was recorded as the maximum activity as a percentage of the wild-type RdpA enzyme's activity, which was set at 100%. […] The enzymatic activity with mecoprop as a substrate was reduced for each of the MON-HT1, MON-HT13, MON-HT15, and MON-HT17 variants compared to the wild-type RdpA enzyme. An unexpected result was that enzymatic activity with MCPA as a substrate was roughly 6-fold greater for MON-HT1, and approximately 10-fold greater for MON-HT13, MON-HT15, and MON-HT17 compared to the wild-type RdpA enzyme.
# transgenic soy plants = experiment: soy green house tolerance to synthetic auxins; type: in vivo, soybean; conditions: for Average soy % crop injury for 4 reps, 2,4-D Amine / Average soy % crop injury for 4 reps, MCPA: 2X rate 1680 g ae/ha
# [5] = percentage of wild-type RdpA, set at 100%
# [6] = 2X rate 840 g ae/ha, Events 1-3 in columns, seven days after treatment
# [7] = Events 1-3 in columns, seven days after treatment
# [8] = Events 1-3 in columns, seven days after treatment, listed as MON-HTI
molecule,measurement,setting,value
B1,tolerance to 2× quizalofop-P application,F1 hybrid maize plants [1]; acclimated at day/night 20° C./20° C. or 28° C./20° C.,good tolerance
same,tolerance to 2× quizalofop-P application,F1 hybrid maize plants [1]; acclimated at day/night 38° C./30° C.,significant sensitivity
same,injury rating,F1 hybrid maize plants [2]; day/night 20° C./20° C. or 28° C./20° C.,around 2
same,injury rating,F1 hybrid maize plants [2]; day/night 38° C./30° C.,3
same,injury rating averages,F1 hybrid maize plants [3],50%
B2,activity with MCPB as the substrate,[4],no detectable activity
same,enzymatic activity with MCPA greater compared to the wild-type RdpA enzyme,[4],roughly 6 fold
same,activity with fluroxypyr as the substrate,[4]; not robust enough to quantify,detectable activity
same,activity with triclopyr as the substrate,[4]; not robust enough to quantify,detectable activity
same,MCPA Km,[4]; [5],21%
same,MCPA Vmax,[4]; [5],600%
same,Mecoprop Km,[4]; [5],142%
same,"Average soy % crop injury for 4 reps, fluroxypyr",transgenic soy plants; [6],96.3% and 93.8% and 97.5%
same,"Average soy % crop injury for 4 reps, triclopyr",transgenic soy plants; [6],81.3% and 90.0%
same,"Average soy % crop injury for 4 reps, 2,4-D Amine",transgenic soy plants; [7],4.5% and 6.5% and 5.3%
same,"Average soy % crop injury for 4 reps, MCPA",transgenic soy plants; [7],90.0% and 72.5%
same,"Average soy % crop injury for 4 reps, 2,4-D Amine",transgenic soy plants; [8],less than 7%
same,"Average soy % crop injury for 4 reps, MCPA",transgenic soy plants; [8],72% and 90%
same,"soy crop injury, triclopyr or fluroxypyr, across all three events",transgenic soy plants; 2× rate 840 g ae/ha,81-97%
